Experimental data reported in patent publication US20230348630A1.

B1: anti-BCMA antibody A6-3 scFv displayed on phage (scFv, part only; not given: scFv linker, phage coat fusion, V domains shown, not shown: another chain or arm of the molecule; large carriers; small tags and cut ends)
VH: QVQLVQSGAEVKKPGASVKVSCKASGYTFTNHIIHWVRQAPGQGLEWMGYINPYPGYHGYNDKFSGRATMTSDTSTSTVYMELSSLRSEDTAVYYCARDGYYRDQDVLDYWGQGTLVTVSS
VL: DIQMTQSPSSLSASVGDRVTITCKASQDISQYLNWYQQKPGKAPKLLIYYTSGLHPGVPSRFSGSGSGTDFTFTISSLEPEDIATYYCQQGYALPWTFGQGTKVEIK
B2: anti-CD3D&E antibody 7-1A12 scFv displayed on phage (scFv, part only; not given: scFv linker, part only)
scFv, part: EVQLVESGGGLVQPGRSLRLSCAASGFTFSDYTMHWVRQAPGKGLEWVSGISWNTGTIGYADSVKGRFTISRDNAKKSLYLQMNSLRAEDTALYYCAKDNSGYGHYYFGMDVWGQGTTVTVASEIVMTQSPATLSVSPGERATLSCRASQSVSRNVAWYQQKPGQAPRLLIYGASTRQTGIPARFSGSGSGTEFTLTISSLQSEDFAVYYCQSYINWPLQFGGGTKVEIK
B3: anti-CD3D&E antibody D1E9 scFv displayed on phage (scFv, part only; not given: scFv linker, phage coat fusion, V domains shown, not shown: another chain or arm of the molecule; large carriers; small tags and cut ends)
VH: EVQLVESGGGLVQPGRSLRLSCAASGFTFDDFAMHWVRQAPGKGLEWVSGITWNSGSVGYADSVKGRFTISRDNAKKSLYLQMNSLRAEDTALYYCAKDRSGYGHYYYGMDVWGQGTTVTVAS
VL: EIVMTQSPATLSVSPGERATLSCRASTSVSHNVAWYQQKPGQAPRLLIYGASTKVTGIPARFSGSGSGTEFTLTISSLQSEDFAVYYCQHYINWPLTFGGGTKVEIK

Assays:
[1] = molecular target: BCMA-his protein (Cat #: BCA-H522y, ACRO) (human) (UniProt Q02223); assay: phage ELISA on BCMA-his protein, detection with HRP anti-M13 antibody
Sequence of BCMA-his protein (Cat #: BCA-H522y, ACRO) (human) (Q02223 1-54 limits assumed): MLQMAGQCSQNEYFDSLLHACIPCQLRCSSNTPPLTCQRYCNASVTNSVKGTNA

[2] = molecular target: CD3D&E protein (Cat #: CT038-H2508H, Sino Biological) (human) (UniProt P04234); assay: phage ELISA on CD3D&E protein, detection with HRP anti-M13 antibody
Sequence of CD3D&E protein (Cat #: CT038-H2508H, Sino Biological) (human) (P04234 22-105, chain 1 of 2): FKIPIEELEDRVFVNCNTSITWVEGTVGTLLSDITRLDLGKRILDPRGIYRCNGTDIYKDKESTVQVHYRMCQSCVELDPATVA
Sequence of CD3D&E protein (Cat #: CT038-H2508H, Sino Biological) (human) (P07766 23-126, chain 2 of 2, further chain): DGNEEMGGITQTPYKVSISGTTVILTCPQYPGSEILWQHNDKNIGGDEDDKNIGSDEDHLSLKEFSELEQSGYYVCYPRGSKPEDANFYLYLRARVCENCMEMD

Binder | EC50 (read off the curve) [1] [µg/mL] | EC50 (read off the curve) [2] [µg/mL]
B1 | 1 | –
B2 | – | 4
B3 | – | 20
